Measured values taken from patent US20210388087A1 (Chugai, published 2021).

T1: Human CD3eg linker (human)
T1 construct: Single chain: epsilon and gamma subunits of human CD3 joined by a 29-mer linker, Flag-tag at the C-terminus; also called recombinant human CD3
T1 chain: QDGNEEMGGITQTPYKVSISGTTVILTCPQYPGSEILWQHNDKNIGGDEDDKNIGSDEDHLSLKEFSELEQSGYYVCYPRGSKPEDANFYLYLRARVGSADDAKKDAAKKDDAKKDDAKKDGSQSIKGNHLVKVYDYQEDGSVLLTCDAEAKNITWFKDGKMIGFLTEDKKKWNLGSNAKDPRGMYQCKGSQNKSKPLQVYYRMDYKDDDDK


Molecular target: T1, Human CD3eg linker
Test: Biacore SPR, vs template H183/L072

Row | Binder | fold change of affinity
1 | H183/L072 VH K52bI (antibody, name in Kabat numbering, V domains shown) VH: QVQLVESGGGLVQPGRSLRLSCAASGFTFSNAWMHWVRQAPGKGLEWVAQIKDIGNAYAAYYAPSVKGRFTISRDDSKNSIYLQMNSLKTEDTAVYYCHYVHYASASTVLPAFGVDAWGQGTTVTVSS VL: DIVMTQSPLSLPVTPGEPASISCQASQELVHMNRNTYLHWYQQKPGQAPRLLIYKVSNRFPGVPDRFSGSGSGTDFTLKISRVEAEDVGVYYCAQGTSVPFTFGQGTKLEIK | 0.8 fold
2 | H183/L072 VH K52bV (antibody, name in Kabat numbering, V domains shown) VH: QVQLVESGGGLVQPGRSLRLSCAASGFTFSNAWMHWVRQAPGKGLEWVAQIKDVGNAYAAYYAPSVKGRFTISRDDSKNSIYLQMNSLKTEDTAVYYCHYVHYASASTVLPAFGVDAWGQGTTVTVSS VL: DIVMTQSPLSLPVTPGEPASISCQASQELVHMNRNTYLHWYQQKPGQAPRLLIYKVSNRFPGVPDRFSGSGSGTDFTLKISRVEAEDVGVYYCAQGTSVPFTFGQGTKLEIK | 0.6 fold
3 | H183/L072 VH K52bR (antibody, name in Kabat numbering, V domains shown) VH: QVQLVESGGGLVQPGRSLRLSCAASGFTFSNAWMHWVRQAPGKGLEWVAQIKDRGNAYAAYYAPSVKGRFTISRDDSKNSIYLQMNSLKTEDTAVYYCHYVHYASASTVLPAFGVDAWGQGTTVTVSS VL: DIVMTQSPLSLPVTPGEPASISCQASQELVHMNRNTYLHWYQQKPGQAPRLLIYKVSNRFPGVPDRFSGSGSGTDFTLKISRVEAEDVGVYYCAQGTSVPFTFGQGTKLEIK | 1.2 fold
4 | H183/L072 VH K52bT (antibody, name in Kabat numbering, V domains shown) VH: QVQLVESGGGLVQPGRSLRLSCAASGFTFSNAWMHWVRQAPGKGLEWVAQIKDTGNAYAAYYAPSVKGRFTISRDDSKNSIYLQMNSLKTEDTAVYYCHYVHYASASTVLPAFGVDAWGQGTTVTVSS VL: DIVMTQSPLSLPVTPGEPASISCQASQELVHMNRNTYLHWYQQKPGQAPRLLIYKVSNRFPGVPDRFSGSGSGTDFTLKISRVEAEDVGVYYCAQGTSVPFTFGQGTKLEIK | 0.3 fold
5 | H183/L072 VH K52bS (antibody, name in Kabat numbering, V domains shown) VH: QVQLVESGGGLVQPGRSLRLSCAASGFTFSNAWMHWVRQAPGKGLEWVAQIKDSGNAYAAYYAPSVKGRFTISRDDSKNSIYLQMNSLKTEDTAVYYCHYVHYASASTVLPAFGVDAWGQGTTVTVSS VL: DIVMTQSPLSLPVTPGEPASISCQASQELVHMNRNTYLHWYQQKPGQAPRLLIYKVSNRFPGVPDRFSGSGSGTDFTLKISRVEAEDVGVYYCAQGTSVPFTFGQGTKLEIK | 0.7 fold
6 | H183/L072 VH K52bY (antibody, name in Kabat numbering, V domains shown) VH: QVQLVESGGGLVQPGRSLRLSCAASGFTFSNAWMHWVRQAPGKGLEWVAQIKDYGNAYAAYYAPSVKGRFTISRDDSKNSIYLQMNSLKTEDTAVYYCHYVHYASASTVLPAFGVDAWGQGTTVTVSS VL: DIVMTQSPLSLPVTPGEPASISCQASQELVHMNRNTYLHWYQQKPGQAPRLLIYKVSNRFPGVPDRFSGSGSGTDFTLKISRVEAEDVGVYYCAQGTSVPFTFGQGTKLEIK | 0.7 fold
7 | H183/L072 VH K52bL (antibody, name in Kabat numbering, V domains shown) VH: QVQLVESGGGLVQPGRSLRLSCAASGFTFSNAWMHWVRQAPGKGLEWVAQIKDLGNAYAAYYAPSVKGRFTISRDDSKNSIYLQMNSLKTEDTAVYYCHYVHYASASTVLPAFGVDAWGQGTTVTVSS VL: DIVMTQSPLSLPVTPGEPASISCQASQELVHMNRNTYLHWYQQKPGQAPRLLIYKVSNRFPGVPDRFSGSGSGTDFTLKISRVEAEDVGVYYCAQGTSVPFTFGQGTKLEIK | 0.6 fold
8 | H183/L072 VH K52bM (antibody, name in Kabat numbering, V domains shown) VH: QVQLVESGGGLVQPGRSLRLSCAASGFTFSNAWMHWVRQAPGKGLEWVAQIKDMGNAYAAYYAPSVKGRFTISRDDSKNSIYLQMNSLKTEDTAVYYCHYVHYASASTVLPAFGVDAWGQGTTVTVSS VL: DIVMTQSPLSLPVTPGEPASISCQASQELVHMNRNTYLHWYQQKPGQAPRLLIYKVSNRFPGVPDRFSGSGSGTDFTLKISRVEAEDVGVYYCAQGTSVPFTFGQGTKLEIK | 0.5 fold
9 | H183/L072 VH K52bG (antibody, name in Kabat numbering, V domains shown) VH: QVQLVESGGGLVQPGRSLRLSCAASGFTFSNAWMHWVRQAPGKGLEWVAQIKDGGNAYAAYYAPSVKGRFTISRDDSKNSIYLQMNSLKTEDTAVYYCHYVHYASASTVLPAFGVDAWGQGTTVTVSS VL: DIVMTQSPLSLPVTPGEPASISCQASQELVHMNRNTYLHWYQQKPGQAPRLLIYKVSNRFPGVPDRFSGSGSGTDFTLKISRVEAEDVGVYYCAQGTSVPFTFGQGTKLEIK | 0.8 fold
10 | H183/L072 VH K52bD (antibody, name in Kabat numbering, V domains shown) VH: QVQLVESGGGLVQPGRSLRLSCAASGFTFSNAWMHWVRQAPGKGLEWVAQIKDDGNAYAAYYAPSVKGRFTISRDDSKNSIYLQMNSLKTEDTAVYYCHYVHYASASTVLPAFGVDAWGQGTTVTVSS VL: DIVMTQSPLSLPVTPGEPASISCQASQELVHMNRNTYLHWYQQKPGQAPRLLIYKVSNRFPGVPDRFSGSGSGTDFTLKISRVEAEDVGVYYCAQGTSVPFTFGQGTKLEIK | 0 fold
11 | H183/L072 VH K52bF (antibody, name in Kabat numbering, V domains shown) VH: QVQLVESGGGLVQPGRSLRLSCAASGFTFSNAWMHWVRQAPGKGLEWVAQIKDFGNAYAAYYAPSVKGRFTISRDDSKNSIYLQMNSLKTEDTAVYYCHYVHYASASTVLPAFGVDAWGQGTTVTVSS VL: DIVMTQSPLSLPVTPGEPASISCQASQELVHMNRNTYLHWYQQKPGQAPRLLIYKVSNRFPGVPDRFSGSGSGTDFTLKISRVEAEDVGVYYCAQGTSVPFTFGQGTKLEIK | 0.4 fold

Next, values leading:

Row | fold change of affinity | Binder
12 | 0.7 fold | H183/L072 VH K52bA (antibody, name in Kabat numbering, V domains shown) VH: QVQLVESGGGLVQPGRSLRLSCAASGFTFSNAWMHWVRQAPGKGLEWVAQIKDAGNAYAAYYAPSVKGRFTISRDDSKNSIYLQMNSLKTEDTAVYYCHYVHYASASTVLPAFGVDAWGQGTTVTVSS VL: DIVMTQSPLSLPVTPGEPASISCQASQELVHMNRNTYLHWYQQKPGQAPRLLIYKVSNRFPGVPDRFSGSGSGTDFTLKISRVEAEDVGVYYCAQGTSVPFTFGQGTKLEIK
13 | 1 fold | H183/L072 VH K64I (antibody, name in Kabat numbering, V domains shown) VH: QVQLVESGGGLVQPGRSLRLSCAASGFTFSNAWMHWVRQAPGKGLEWVAQIKDKGNAYAAYYAPSVIGRFTISRDDSKNSIYLQMNSLKTEDTAVYYCHYVHYASASTVLPAFGVDAWGQGTTVTVSS VL: DIVMTQSPLSLPVTPGEPASISCQASQELVHMNRNTYLHWYQQKPGQAPRLLIYKVSNRFPGVPDRFSGSGSGTDFTLKISRVEAEDVGVYYCAQGTSVPFTFGQGTKLEIK
14 | 0.5 fold | H183/L072 VH K52bE (antibody, name in Kabat numbering, V domains shown) VH: QVQLVESGGGLVQPGRSLRLSCAASGFTFSNAWMHWVRQAPGKGLEWVAQIKDEGNAYAAYYAPSVKGRFTISRDDSKNSIYLQMNSLKTEDTAVYYCHYVHYASASTVLPAFGVDAWGQGTTVTVSS VL: DIVMTQSPLSLPVTPGEPASISCQASQELVHMNRNTYLHWYQQKPGQAPRLLIYKVSNRFPGVPDRFSGSGSGTDFTLKISRVEAEDVGVYYCAQGTSVPFTFGQGTKLEIK
15 | 0.7 fold | H183/L072 VH K52bQ (antibody, name in Kabat numbering, V domains shown) VH: QVQLVESGGGLVQPGRSLRLSCAASGFTFSNAWMHWVRQAPGKGLEWVAQIKDQGNAYAAYYAPSVKGRFTISRDDSKNSIYLQMNSLKTEDTAVYYCHYVHYASASTVLPAFGVDAWGQGTTVTVSS VL: DIVMTQSPLSLPVTPGEPASISCQASQELVHMNRNTYLHWYQQKPGQAPRLLIYKVSNRFPGVPDRFSGSGSGTDFTLKISRVEAEDVGVYYCAQGTSVPFTFGQGTKLEIK
16 | 0.7 fold | H183/L072 VH K52bH (antibody, name in Kabat numbering, V domains shown) VH: QVQLVESGGGLVQPGRSLRLSCAASGFTFSNAWMHWVRQAPGKGLEWVAQIKDHGNAYAAYYAPSVKGRFTISRDDSKNSIYLQMNSLKTEDTAVYYCHYVHYASASTVLPAFGVDAWGQGTTVTVSS VL: DIVMTQSPLSLPVTPGEPASISCQASQELVHMNRNTYLHWYQQKPGQAPRLLIYKVSNRFPGVPDRFSGSGSGTDFTLKISRVEAEDVGVYYCAQGTSVPFTFGQGTKLEIK
17 | 0.5 fold | H183/L072 VH K52bP (antibody, name in Kabat numbering, V domains shown) VH: QVQLVESGGGLVQPGRSLRLSCAASGFTFSNAWMHWVRQAPGKGLEWVAQIKDPGNAYAAYYAPSVKGRFTISRDDSKNSIYLQMNSLKTEDTAVYYCHYVHYASASTVLPAFGVDAWGQGTTVTVSS VL: DIVMTQSPLSLPVTPGEPASISCQASQELVHMNRNTYLHWYQQKPGQAPRLLIYKVSNRFPGVPDRFSGSGSGTDFTLKISRVEAEDVGVYYCAQGTSVPFTFGQGTKLEIK
18 | 1 fold | H183/L072 VH K64A (antibody, name in Kabat numbering, V domains shown) VH: QVQLVESGGGLVQPGRSLRLSCAASGFTFSNAWMHWVRQAPGKGLEWVAQIKDKGNAYAAYYAPSVAGRFTISRDDSKNSIYLQMNSLKTEDTAVYYCHYVHYASASTVLPAFGVDAWGQGTTVTVSS VL: DIVMTQSPLSLPVTPGEPASISCQASQELVHMNRNTYLHWYQQKPGQAPRLLIYKVSNRFPGVPDRFSGSGSGTDFTLKISRVEAEDVGVYYCAQGTSVPFTFGQGTKLEIK
19 | 0.5 fold | H183/L072 VH K52bN (antibody, name in Kabat numbering, V domains shown) VH: QVQLVESGGGLVQPGRSLRLSCAASGFTFSNAWMHWVRQAPGKGLEWVAQIKDNGNAYAAYYAPSVKGRFTISRDDSKNSIYLQMNSLKTEDTAVYYCHYVHYASASTVLPAFGVDAWGQGTTVTVSS VL: DIVMTQSPLSLPVTPGEPASISCQASQELVHMNRNTYLHWYQQKPGQAPRLLIYKVSNRFPGVPDRFSGSGSGTDFTLKISRVEAEDVGVYYCAQGTSVPFTFGQGTKLEIK
20 | 0.6 fold | H183/L072 VH K52bW (antibody, name in Kabat numbering, V domains shown) VH: QVQLVESGGGLVQPGRSLRLSCAASGFTFSNAWMHWVRQAPGKGLEWVAQIKDWGNAYAAYYAPSVKGRFTISRDDSKNSIYLQMNSLKTEDTAVYYCHYVHYASASTVLPAFGVDAWGQGTTVTVSS VL: DIVMTQSPLSLPVTPGEPASISCQASQELVHMNRNTYLHWYQQKPGQAPRLLIYKVSNRFPGVPDRFSGSGSGTDFTLKISRVEAEDVGVYYCAQGTSVPFTFGQGTKLEIK
